Test results taken from patent US20030129296A1.
Values belong to the substance of their own block, whether it stands above or below them.

What was measured:
[1] = target: mouse IgG labeled with Alexa Fluor 488 (Molecular Probes, Inc., A-11243 anti-biotin, mouse monoclonal 2F5, Alexa Fluor 488 conjugate) (mouse); experiment: fluorescence imaging of film-immobilized capture particles, film background subtracted; labeled target at 100 nM, 2 h
[2] = target: mouse IgG labeled with Alexa Fluor 488 (Molecular Probes, Inc., A-11243 anti-biotin, mouse monoclonal 2F5, Alexa Fluor 488 conjugate) (mouse); experiment: fluorescence imaging of film-immobilized capture particles; labeled target at 100 nM, 2 h
[3] = target: mouse IgG labeled with Alexa Fluor 488 (Molecular Probes, Inc., A-11243 anti-biotin, mouse monoclonal 2F5, Alexa Fluor 488 conjugate) (mouse); experiment: ratio of particle fluorescence to film background fluorescence; labeled target at 100 nM, 2 h
[4] = target: mouse IgG labeled with Alexa Fluor 488 (Molecular Probes, Inc., A-11243 anti-biotin, mouse monoclonal 2F5, Alexa Fluor 488 conjugate) (mouse); experiment: fluorescence imaging of film-immobilized capture particles; labeled target at 10 nM, 2 h
[5] = target: mouse IgG labeled with Alexa Fluor 488 (Molecular Probes, Inc., A-11243 anti-biotin, mouse monoclonal 2F5, Alexa Fluor 488 conjugate) (mouse); experiment: net median particle fluorescence divided by that of the blank (0 nM) particles; labeled target at 1 nM, 2 h
[6] = target: mouse IgG labeled with Alexa Fluor 488 (Molecular Probes, Inc., A-11243 anti-biotin, mouse monoclonal 2F5, Alexa Fluor 488 conjugate) (mouse); experiment: fluorescence imaging of film-immobilized capture particles, film background subtracted; labeled target at 10 nM, 2 h
[7] = target: mouse IgG labeled with Alexa Fluor 488 (Molecular Probes, Inc., A-11243 anti-biotin, mouse monoclonal 2F5, Alexa Fluor 488 conjugate) (mouse); experiment: net median particle fluorescence divided by that of the blank (0 nM) particles; labeled target at 10 nM, 2 h
[8] = target: mouse IgG labeled with Alexa Fluor 488 (Molecular Probes, Inc., A-11243 anti-biotin, mouse monoclonal 2F5, Alexa Fluor 488 conjugate) (mouse); experiment: net median particle fluorescence divided by that of the blank (0 nM) particles; labeled target at 100 nM, 2 h
[9] = target: mouse IgG labeled with Alexa Fluor 488 (Molecular Probes, Inc., A-11243 anti-biotin, mouse monoclonal 2F5, Alexa Fluor 488 conjugate) (mouse); experiment: fluorescence imaging of film-immobilized capture particles; labeled target at 1 nM, 2 h
[10] = target: mouse IgG labeled with Alexa Fluor 488 (Molecular Probes, Inc., A-11243 anti-biotin, mouse monoclonal 2F5, Alexa Fluor 488 conjugate) (mouse); experiment: ratio of particle fluorescence to film background fluorescence; labeled target at 1 nM, 2 h
[11] = target: mouse IgG labeled with Alexa Fluor 488 (Molecular Probes, Inc., A-11243 anti-biotin, mouse monoclonal 2F5, Alexa Fluor 488 conjugate) (mouse); experiment: ratio of particle fluorescence to film background fluorescence; labeled target at 10 nM, 2 h
[12] = target: mouse IgG labeled with Alexa Fluor 488 (Molecular Probes, Inc., A-11243 anti-biotin, mouse monoclonal 2F5, Alexa Fluor 488 conjugate) (mouse); experiment: fluorescence imaging of film-immobilized capture particles, film background subtracted; labeled target at 1 nM, 2 h
[13] = target: Cy3-labeled mouse monoclonal antibody (Amersham) (mouse); experiment: fluorescence imaging of 0.8 µm capture particles on epoxy-hydrogel slides; dilution series of the Cy3-labeled target, overnight incubation

Net Median Particle Fluorescence, MPF [1]: 43 cps
Particle Fluorescence Rate, Average [2]: 50.7 cps
Particle Fluorescence Rate, Maximum [2]: 74.1 cps
Particle Fluorescence Rate, Median [2]: 50.8 cps
Particle Fluorescence Rate, Minimum [2]: 34.1 cps
MPF/FBF [3]: 6.41
Particle Fluorescence Rate, Average [4]: 44.5 cps
Particle Fluorescence Rate, Maximum [4]: 66.2 cps
Particle Fluorescence Rate, Median [4]: 46.4 cps
Particle Fluorescence Rate, Minimum [4]: 12 cps
MPF/MPF0 [5]: 58.2
Net Median Particle Fluorescence, MPF [6]: 40 cps
MPF/MPF0 [7]: 99.5
MPF/MPF0 [8]: 107
Particle Fluorescence Rate, Average [9]: 29.6 cps
Particle Fluorescence Rate, Maximum [9]: 62.6 cps
Particle Fluorescence Rate, Median [9]: 28.1 cps
Particle Fluorescence Rate, Minimum [9]: 14.8 cps
MPF/FBF [10]: 5.97
MPF/FBF [11]: 7.45
Net Median Particle Fluorescence, MPF [12]: 23 cps
Substance: goat anti-mouse IgG(Fc) coated particles, 3.2 µm in diameter (Spherotech, Inc., MPFc-30-5) (antibody)

detection level [13]: 1 pM
Substance: 0.8-µm-diameter particles coated with goat-anti-mouse antibody
